Consider one molecule from patent publication US12156889B2, “Methods of administering mesenchymal stem cells activated by cytokines for enhancing immunosuppression” (Rutgers, The State University of New Jersey, priority 2012, dated 2024).

This experiment concerns MSCs. Nature of the experiment: Gene expression in cytokine-treated MSCs (quantitative RT-PCR, Western Blot). In kind it is cell-based, mouse. The protocol:
FIG. 6. IL-17A greatly enhances inflammatory cytokine-induced iNOS expression in mouse BM-MSCs at both mRNA and protein levels. BM-MSCs were treated with the indicated cytokines. The iNOS gene expression was measured by real-time PCR.
FIGS. 10A, 10B, 10C, 10D and 10E. (FIGS. 10A and 10C). MSCs were cultured with different combinations of inflammatory cytokines IFNγ, TNFα, IL-17A (10 ng/ml) for 12 hr, and then cells were harvested for RNA extraction. The mRNA expression levels of inflammatory molecules iNOS, IL-6, CXCL1 (FIG. 10A) and chemokines CCL2, CCL5, CXCL9, CXCL10 (FIG. 10C) were detected by quantitative RT-PCR. (FIG. 10B). MSCs were cultured with different combinations of inflammatory cytokines IFNγ, TNFα, IL-17A (10 ng/ml) for 24 hr, and the protein level of iNOS was detected by Western Blot. (FIG. 10D). MSCs were supplemented with Sup-CD3 or Sup-CD3 pretreated with antibodies against IL-17A, and cells were collected for RNA extraction after 12 hr. The expression of iNOS, IL-6, CXCL1, CCL2, CCL5, CXCL9 and CXCL10 were measured by quantitative RT-PCR. Sup-CD3: supernatant from splenocytes activated by anti-CD3 and anti-CD28. (FIG. 10E). MSCs were treated with Sup-CD3 or Sup-CD3 pretreated with antibodies against IL-17A, and the protein level of iNOS was assessed by Western Blot after 24 hr. mRNA expression values are means±SEM of three wells from a representative of three independent experiments. Western Blot data is from a representative of three independent experiments.
FIGS. 11A, 11B, 11C and 11D. (FIG. 11A) MSCs with Act1 knockdown or control were treated with IL-17A for different time and the phosphorylation levels of IκBα, ERK, p65, JNK were assessed by Western Blot. (FIG. 11B) MSCs with Act1 knockdown or control were treated with IFNγ and TNFα with or without IL-17A (all cytokines supplemented at 5 ng/ml) the protein levels of iNOS and Act1 were assessed by Western Blot. (FIG. 11C) MSCs (Act1 knockdown or control) were treated with different cytokines 12 hr, and iNOS expression was measured by quantitative RT-PCR. mRNA expression values are means±SEM. (FIG. 11D) MSCs (Act1 knockdown or control) were first treated with IFNγ and TNFα with or without IL-17A (all cytokines supplemented at 5 ng/ml) for 12 hr, and then cocultured with T cell hybridoma A1.1 cells at a ratio of 1:10 for 12 hr. T cell proliferation was measured by 3H-Tdr incorporation, taking the proliferation level of A1.1 alone as 100%.
FIGS. 12A and 12B. (FIG. 12A). WT MSCs or auf1^−/− MSCs were treated with IFNγ and TNFα, or together with IL-17A (all cytokines supplemented at 10 ng/ml) for 12 hr, and iNOS, IL-6 and CXCL1 expression was measured by quantitative RT-PCR. mRNA expression values are means±SEM of three wells from a representative of three independent experiments. (FIG. 12B). WT MSCs were treated with IFNγ and TNFα (10 ng/ml), or together with different concentrations of IL-17A; auf1^−/−-MSCs were treated with IFNγ and TNFα (10 ng/ml), or together with 10 ng/ml of IL-17A. After 24 hr, cells were harvested for detection of iNOS by Western Blot. Western blot is a representative of three independent experiments.
RNA isolation and gene expression assay-Total RNA was isolated with the RNAprep Pure Cell/Bacteria Kit. First-strand cDNA synthesis was performed with a cDNA synthesis kit. The levels of mRNAs were measured by quantitative RT-PCR (7900 HT; Applied Biosystems, Foster City, CA) with SYBR Green Master Mix and normalized to the level of β-actin mRNA. Sequences of forward and reverse primer pairs are as follows:
Western blotting analysis-Cells were washed twice with ice-cold PBS, harvested and lysed in the RIPA buffer (Millipore, Temecular, CA) containing a cocktail of protease inhibitors (Roche, Natley, NJ) and PMSF (Sigma) for 30 min on ice. Lysates were clarified by centrifugation at 16,000 g for 15 minutes. Protein concentration of the supernatant was determined by the Bradford assay (Bio-Rad, Hercules, CA). […]

Where [1] appears, read: together with IFNγ and TNFα, 10 ng/ml, 12 hr.

B1: IL-17A: recombinant mouse interleukin 17A (protein)
chain: AAIIPQSSACPNTEAKDFLQNVKVNLKVFNSLGAKVSSRRPSDYLNRSTSPWTLHRNEDPDRYPSVIWEAQCRHQRCVNAEGKLDHHMNSVLIQQEILVLKREPESCPFTFRVEKMLVGVGCTCVASIVRQAA
As to B1, the “IFNγ+TNFα induced iNOS expression in Act1 knockdown MSCs” value (5 ng/ml) is reported as “could not upregulate”. Further, the “expression of CCL5, CCL2, CXCL9, CXCL10” value (addition to IFNγ and TNFα, 10 ng/ml, 12 hr) is “unaffected”. For the same molecule, the “expression of iNOS at mRNA and protein levels in BM-MSCs” value (in the presence of IFNγ and TNFα) is reported as “greatly enhanced”. Further, under setting [1], the “iNOS, IL-6, and CXCL1 mRNAs in wild-type MSCs” value was “significant increases”; the “increase of iNOS, IL-6, and CXCL1 mRNA abundance in auf1−/− MSCs” value is reported as “less than twofold”. In addition, for the setting “with IFNγ+TNFα”, the “IL-17A induction of iNOS expression in MSCs with AUF1 knocked down with siRNA” value is reported as “largely abrogated” and the “iNOS expression in wild type MSCs” value was “strikingly induced”.
